{"source": "paper PMC10269446", "target": "T1, rOmpR (OmpR-6xHis) (Klebsiella pneumoniae ATCC43816?) (UniProt A6TF28)", "T1 sequence": "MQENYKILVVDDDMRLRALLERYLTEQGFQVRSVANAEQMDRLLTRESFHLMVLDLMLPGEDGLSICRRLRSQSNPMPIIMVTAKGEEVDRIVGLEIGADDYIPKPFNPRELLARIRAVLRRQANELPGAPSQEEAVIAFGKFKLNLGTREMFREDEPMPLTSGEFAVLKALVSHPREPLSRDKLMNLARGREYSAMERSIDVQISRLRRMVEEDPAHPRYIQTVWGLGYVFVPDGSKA", "experiment": "EMSA", "data": [{"sequence": "ACAGAACGCTGAAATGCACGGAAAGTTGTCCGTTGGAAAATAATTAAACATTTATTCACTATTTTGCTACTTATTGTTTGAAATCACGGGGCGTCACCGTATAATTTGTCCGCTTTTTGATGCTTGACTCTTCGTCTTAAAGGACGTTTTATACGACACGCGACATACCTCAAAGGGAGCAGG (double strand) [Patp2]", "values": [{"measurement": "binding", "value": "no binding"}]}]}
